According to patent publication US20210147523A1 (TEIJIN PHARMA, published 2021):
Numbering of substitutions follows the chain as printed.

T1: human SPNS2 W259A mutant (human, UniProt Q8IVW8 1-549)
T1 sequence: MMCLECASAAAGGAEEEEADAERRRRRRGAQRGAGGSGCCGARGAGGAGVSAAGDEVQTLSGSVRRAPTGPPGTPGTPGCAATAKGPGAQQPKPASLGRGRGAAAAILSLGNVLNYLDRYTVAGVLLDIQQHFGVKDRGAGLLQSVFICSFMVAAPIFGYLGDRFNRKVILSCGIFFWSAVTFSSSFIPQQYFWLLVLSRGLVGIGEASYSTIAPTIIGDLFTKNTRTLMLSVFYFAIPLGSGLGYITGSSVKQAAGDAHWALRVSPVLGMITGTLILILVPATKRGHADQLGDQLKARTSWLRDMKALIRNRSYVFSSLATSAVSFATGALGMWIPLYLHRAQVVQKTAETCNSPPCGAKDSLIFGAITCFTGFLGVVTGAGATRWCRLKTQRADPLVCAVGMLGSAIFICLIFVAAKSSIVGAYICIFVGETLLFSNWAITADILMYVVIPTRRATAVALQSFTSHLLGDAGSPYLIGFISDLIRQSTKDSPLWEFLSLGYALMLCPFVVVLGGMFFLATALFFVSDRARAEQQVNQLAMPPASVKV

T2: human SPNS2 (human, UniProt Q8IVW8 1-549)
T2 sequence: T1 sequence with A259W

T3: mouse SPNS2 (mouse, UniProt Q91VM4 1-549)
T3 sequence: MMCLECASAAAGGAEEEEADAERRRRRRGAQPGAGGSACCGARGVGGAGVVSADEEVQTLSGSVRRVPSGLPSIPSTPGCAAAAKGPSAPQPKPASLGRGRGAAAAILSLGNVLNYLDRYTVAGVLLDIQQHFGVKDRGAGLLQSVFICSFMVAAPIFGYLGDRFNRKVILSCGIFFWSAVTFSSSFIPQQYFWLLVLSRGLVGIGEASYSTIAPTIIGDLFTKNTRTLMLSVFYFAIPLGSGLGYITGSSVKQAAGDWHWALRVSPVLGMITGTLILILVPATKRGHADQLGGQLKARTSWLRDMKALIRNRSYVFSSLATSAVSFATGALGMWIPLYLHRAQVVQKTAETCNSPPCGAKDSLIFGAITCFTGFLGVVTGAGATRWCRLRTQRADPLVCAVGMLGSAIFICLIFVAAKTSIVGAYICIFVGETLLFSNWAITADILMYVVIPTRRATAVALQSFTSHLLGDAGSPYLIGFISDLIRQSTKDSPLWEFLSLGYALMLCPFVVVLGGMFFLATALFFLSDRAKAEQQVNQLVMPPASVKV

B1: 37-0511F (antibody, IgG2b, V domains shown)
VH: EVHLQQSGAALVRPRASVKLSCKVSGDSISRYYVHFVKQRPGQGLEWIGRIDPEDDTTKYSEKFKNRATLTADASSDTASLILSGLTSDDTATYFCSTLTGLDYWGQGVMVTVSS
VL: DIQMTQSPPVLSTSVGDRVTLRCKPSQNVHSKLDWYQQKHGEAPKLLIYYTHNLQTGIPSRFSGSGSGTDYTLTISSLQPEDVATYYCFQYYSGWTFGGGTKLEMKR
B2: 94-1311E (antibody, V domains shown)
VH: EVQLQQSGAGLVRPRTSVRLSCKISGDSITAYYVHFVKQRPGQGLEWIGRIDPEDDSTKYSEKFKNKATLTADVSSSTAYLILSSLTSDDSATYFCSTLTGLDYWGQGVMVTVSS
VL: B1 VL with T13A, R22S, P25A, N28S, S31N, T69S, Q79R, P80A
B3: 53-0707E (antibody, IgG2b, V domains shown)
VH: B1 VH with H3Q, A10E, A16T, S30T, N66K, R67K, D77N, S80Y, L83F, D89E
VL: B1 VL with P25A
B4: 83-1110B (antibody, IgG2b, V domains shown)
VH: EVQLQQSGPEFVRPGTSVKFSCKVSGGSITSYFIHFVKQRPGQGLEWIGKIDPEDDSTKYGEKFKNKATLTADTSSNTAFLKLSSLTSEDTAIYFCTTLTGLDYWGQGVMVTVSS
VL: DIQMTQSPPVLSAAVGDRVTLSCKASRSLNKNLDWYQQKHGETPKLLIYHTHNLQTGIPSRFSGSGSDTDYTLTISSLQTEDVATYYCYQYHSGWTFGGGTRLELRR
B5: 33-0503E (antibody, IgG2b, V domains shown)
VH: EVQLVESGGGLVRPGGSMKLSCGASGFIFDNYYMTWVRQAPTKGLEWVASISSSGGNTYYRDSVRGRFTISRDNAGNTLSLQMGSLRAEDTATYHCAKEGYRGRYFDYWGQGVMVTVSS
VL: QVVLTQPNSVSTNLGSTVKLSCKRTTGNIGSNYVNWYQQHEGRSPTTMIYRDDERPDGVPDRFSGSIDRSSNSALLTINNVQTEDEAEYFCQSYSSGIIFGGGTKLTVL
B6: 64-0807A (antibody, IgG2b, V domains shown)
VH: EVQVVESGGGLVQPGRSMKLSCAALGFTFRDYYMAWVRQTPTKGLEWVAAISTGGGNTYYRDSVKGRFTISRDNAKSTLYLQMDSLRSDDTATYYCARNPYGNYFDYWGQGVMVTVSS
VL: QFVLSQPNSVSTNLGSTVKLSCKRSTGNIGSNYVHWYQRHEGRSPTTLIYRDDKRPNGVPDRFSGSIDRSSNSALLTINNVQTEDEADYFCQSYSGGMYLFGGGTKLTVL
B7: 49-0703G (antibody, IgG2b, V domains shown)
VH: EVQLVESGGGLVQPGRSMKLSCAASGFTFSNHYMAWVRQAPTKGLEWVASISTGGGNTYYRDSVKGRFTISRDNAKSTLYLQMDSLRSEDTATYYCARQDYSNYMGGFAYWGQGTLVTVSS
VL: QFVLTQPNSVSTNLGSTVKLSCKRSTGNIGNNYVNWYQQYEGRSPTTMIYRDDERPDGVPDRFSGSIDRSSNSALLTINNVQTEDEADYFCQSFSNGMFIFAGGTQLTVL
B8: 65-0810G (antibody, IgG2b, V domains shown)
VH: EVHLVESGGGLVQPGRSMKLSCTASGFTFNNYYMAWVRQAPTKGLEWVASISTGGGYTYYRDSVKGRFTISRDNTGNTLYLQMDSLRSEDTATYYCARCWELPYWGQGVMVTVSS
VL: QFVLTQPNSVSTNLGSTVKLSCRRSSGNIGNNYVNWYRQHEGRSPTTMIYRDDTRPDGVPNRFSGSIDRSSNSALLTINNVRPEDEAYYFCQSYSGSIYIFGGGTKLTVL

Tests used:
human SPNS2 W259A mutant = target: T1, human SPNS2 W259A mutant; assay: flow cytometry
human SPNS2 [1] = target: T2, human SPNS2; assay: cell-based or functional assay
mouse SPNS2 [2] = target: T3, mouse SPNS2; assay: cell-based or functional assay
human SPNS2 [3] = target: T2, human SPNS2; assay: cell-based or functional assay; remark: listed apart in the source
mouse SPNS2 [4] = target: T3, mouse SPNS2; assay: cell-based or functional assay; remark: listed apart in the source
human SPNS2 [5] = target: T2, human SPNS2; assay: Cell ELISA
Description: (§1) Human and mouse SPNS2 and human SphK1 double stable expression Flp-in 293 cells were added to a poly D lysine coat 96-well plate (Corning, 356461) in a density of 1×10⁵ cells/well and was cultivated overnight, and then the culture medium was removed. An anti-SPNS2 antibody solution was adjusted into 20 μg/mL using 0.2% FBS/3% BSA/PBS, and 0.2% FBS/3% BSA/PBS (60 μL) was added to the antibody diluted solution (20 μL) to prepare seven-step diluted solutions by four fold serial dilution. Each diluted solution of the anti-SPNS2 antibody was added in a volume of 30 μL/well, and reacted for about one hour at room temperature. The antibody solution was removed, and the residue was washed with PBS containing 0.05% Tween 20 (PBS-T) two times, and fixed for about ten minutes at room temperature using 10% buffered formalin (Mildform (Trade mark) 10NM, Wako). After washing with PBS-T one time, a 5000-fold diluted solution of anti-rat IgG antibody HRP conjugate (Southern Biotech, 3030-05) in 0.2% FBS/3% BSA/PBS was added to each well (30 μL), and reacted for about one hour at room temperature. After washing with PBS-T four times, a substrate (TMB; 3, 3′, 5, 5′-tetramethylbenzidin) was added to each well (100 μL) to initiate the reaction. After 20 minutes, 2N sulfuric acid was added to each well (100 μL), and absorbance at 450 nm and 550 nm was measured. […] Each antibody bound to human SPNS2 and mouse SPNS2.

mouse SPNS2 [6] = target: T3, mouse SPNS2; assay: Cell ELISA
Description: as §1

Row | Binder | binding ratio vs native type (human SPNS2 W259A mutant) | pIC50, S1P transport inhibition (LC-MS/MS of S1P) (human SPNS2 [1]) | pIC50, S1P transport inhibition (LC-MS/MS of S1P) (mouse SPNS2 [2]) | pIC50, S1P transport inhibition (S1PR3 Ca2+ FLIPR bioassay) (human SPNS2 [3]) | pIC50, S1P transport inhibition (S1PR3 Ca2+ FLIPR bioassay) (mouse SPNS2 [4]) | Emax (human SPNS2 [5]) | pEC50 (human SPNS2 [5]) | Emax (mouse SPNS2 [6]) | pEC50 (mouse SPNS2 [6])
1 | B1 | < 0.5 ratio | 7.7 pIC50 (M) | 7.8 pIC50 (M) | 7.3 pIC50 (M) | 7.8 pIC50 (M) | 1.35 absorbance | 8.2 pEC50 (M) | 1.29 absorbance | 8.01 pEC50 (M)
2 | B2 | < 0.5 ratio | 7.9 pIC50 (M) | 8.2 pIC50 (M) | 7.8 pIC50 (M) | 8.1 pIC50 (M) | 1.61 absorbance | 8.34 pEC50 (M) | 1.52 absorbance | 8.2 pEC50 (M)
3 | B3 | < 0.5 ratio | 7.3 pIC50 (M) | 7.6 pIC50 (M) | 7.1 pIC50 (M) | 7.6 pIC50 (M) | 1.62 absorbance | 7.87 pEC50 (M) | 1.43 absorbance | 7.82 pEC50 (M)
4 | B4 | < 0.5 ratio | 7.9 pIC50 (M) | 8.1 pIC50 (M) | 7.6 pIC50 (M) | 8 pIC50 (M) | 1.6 absorbance | 8.32 pEC50 (M) | 1.59 absorbance | 8.17 pEC50 (M)
5 | B5 | < 0.5 ratio | 7.4 pIC50 (M) | 7.7 pIC50 (M) | 7 pIC50 (M) | 7.5 pIC50 (M) | 2.03 absorbance | 8.12 pEC50 (M) | 2.2 absorbance | 7.66 pEC50 (M)
6 | B6 | < 0.5 ratio | 7.5 pIC50 (M) | 7.7 pIC50 (M) | 7.4 pIC50 (M) | 7.6 pIC50 (M) | 1.83 absorbance | 8.07 pEC50 (M) | 1.88 absorbance | 7.83 pEC50 (M)
7 | B7 | < 0.5 ratio | 7.4 pIC50 (M) | 7.6 pIC50 (M) | 7 pIC50 (M) | 7.3 pIC50 (M) | 1.77 absorbance | 8.42 pEC50 (M) | 1.67 absorbance | 8.09 pEC50 (M)
8 | B8 | < 0.5 ratio | 7.4 pIC50 (M) | 7.8 pIC50 (M) | 7.2 pIC50 (M) | 7.6 pIC50 (M) | 1.7 absorbance | 8.36 pEC50 (M) | 1.54 absorbance | 8.15 pEC50 (M)
